In US20220033501A1:

Columns and labels:
[1] = biological target: monkey TIM-3 on CHOK1 stable cell line (CHOK1-cTIM-3) (monkey); assay: FACS, CHOK1-cTIM-3 cells, 0.064 nM antibody
[2] = biological target: human TIM-3 extracellular domain protein with hFc tag (hTIM-3-hFc) (human) (UniProt Q8TDQ0); assay: FACS, blocking of hTIM-3-hFc binding to phosphatidylserine on apoptotic Jurkat cells, 66.667 nM antibody
[3] = biological target: monkey TIM-3 extracellular domain protein with hFc tag (cTIM-3-hFc) (monkey); assay: ELISA, coated monkey TIM-3 ECD protein, 0.6667 nM antibody
[4] = biological target: murine TIM-3 extracellular domain protein with hFc tag (mTIM-3-hFc) (mouse) (UniProt Q8VIM0); assay: ELISA, coated mouse TIM-3 ECD protein, 0.0007 nM antibody
[5] = biological target: human TIM-3 extracellular domain protein with hFc tag (hTIM-3-hFc) (human) (UniProt Q8TDQ0); assay: ELISA, coated human TIM-3 ECD protein, 6.6667 nM antibody
[6] = biological target: human TIM-3 on CHOK1 stable cell line (CHOK1-hTIM-3) (human) (UniProt Q8TDQ0); assay: FACS, CHOK1-hTIM-3 cells, 0.32 nM antibody
[7] = biological target: monkey TIM-3 on CHOK1 stable cell line (CHOK1-cTIM-3) (monkey); assay: FACS, CHOK1-cTIM-3 cells, 0 nM antibody
[8] = biological target: human TIM-3 extracellular domain protein with hFc tag (hTIM-3-hFc) (human) (UniProt Q8TDQ0); assay: FACS, blocking of hTIM-3-hFc binding to phosphatidylserine on apoptotic Jurkat cells, 0.823 nM antibody
[9] = biological target: monkey TIM-3 on CHOK1 stable cell line (CHOK1-cTIM-3) (monkey); assay: FACS, CHOK1-cTIM-3 cells, 40 nM antibody
[10] = biological target: monkey TIM-3 extracellular domain protein with hFc tag (cTIM-3-hFc) (monkey); assay: ELISA, coated monkey TIM-3 ECD protein, 66.667 nM antibody
[11] = biological target: murine TIM-3 extracellular domain protein with hFc tag (mTIM-3-hFc) (mouse) (UniProt Q8VIM0); assay: ELISA, coated mouse TIM-3 ECD protein, 0.0067 nM antibody
[12] = biological target: human TIM-3 extracellular domain protein with hFc tag (hTIM-3-hFc) (human) (UniProt Q8TDQ0); assay: FACS, blocking of hTIM-3-hFc binding to phosphatidylserine on apoptotic Jurkat cells, 2.469 nM antibody
[13] = biological target: human TIM-3 extracellular domain protein with hFc tag (hTIM-3-hFc) (human) (UniProt Q8TDQ0); assay: FACS, blocking of hTIM-3-hFc binding to phosphatidylserine on apoptotic Jurkat cells, 0 nM antibody
[14] = biological target: monkey TIM-3 extracellular domain protein with hFc tag (cTIM-3-hFc) (monkey); assay: ELISA, coated monkey TIM-3 ECD protein, 0.0067 nM antibody
[15] = biological target: human TIM-3 extracellular domain protein with hFc tag (hTIM-3-hFc) (human) (UniProt Q8TDQ0); assay: ELISA, coated human TIM-3 ECD protein, 0.0667 nM antibody
[16] = biological target: murine TIM-3 extracellular domain protein with hFc tag (mTIM-3-hFc) (mouse) (UniProt Q8VIM0); assay: ELISA, coated mouse TIM-3 ECD protein, 66.667 nM antibody
[17] = biological target: human TIM-3 extracellular domain protein with hFc tag (hTIM-3-hFc) (human) (UniProt Q8TDQ0); assay: ELISA, coated human TIM-3 ECD protein, 0.6667 nM antibody
[18] = biological target: murine TIM-3 extracellular domain protein with hFc tag (mTIM-3-hFc) (mouse) (UniProt Q8VIM0); assay: ELISA, coated mouse TIM-3 ECD protein, 0.0001 nM antibody
[19] = biological target: monkey TIM-3 extracellular domain protein with hFc tag (cTIM-3-hFc) (monkey); assay: ELISA, coated monkey TIM-3 ECD protein, 6.6667 nM antibody
[20] = biological target: human TIM-3 on CHOK1 stable cell line (CHOK1-hTIM-3) (human) (UniProt Q8TDQ0); assay: FACS, CHOK1-hTIM-3 cells, 0 nM antibody
[21] = biological target: human TIM-3 extracellular domain protein with hFc tag (hTIM-3-hFc) (human) (UniProt Q8TDQ0); assay: FACS, blocking of hTIM-3-hFc binding to phosphatidylserine on apoptotic Jurkat cells, 7.407 nM antibody
[22] = biological target: monkey TIM-3 extracellular domain protein with hFc tag (cTIM-3-hFc) (monkey); assay: ELISA, coated monkey TIM-3 ECD protein, 0.0007 nM antibody
[23] = biological target: monkey TIM-3 on CHOK1 stable cell line (CHOK1-cTIM-3) (monkey); assay: FACS, CHOK1-cTIM-3 cells, 0.013 nM antibody
[24] = biological target: human TIM-3 extracellular domain protein with hFc tag (hTIM-3-hFc) (human) (UniProt Q8TDQ0); assay: ELISA, coated human TIM-3 ECD protein, 0.0001 nM antibody
[25] = biological target: murine TIM-3 extracellular domain protein with hFc tag (mTIM-3-hFc) (mouse) (UniProt Q8VIM0); assay: ELISA, coated mouse TIM-3 ECD protein, 0.0667 nM antibody
[26] = biological target: human TIM-3 extracellular domain protein with hFc tag (hTIM-3-hFc) (human) (UniProt Q8TDQ0); assay: ELISA, coated human TIM-3 ECD protein, 0.0067 nM antibody
[27] = biological target: TIM-3 protein on human peripheral blood mononuclear lymphocytes (PBMC) (human) (UniProt Q8TDQ0); assay: cell-based or functional assay
[28] = biological target: human TIM-3 extracellular domain protein with hFc tag (hTIM-3-hFc) (human) (UniProt Q8TDQ0); assay: ELISA, coated human TIM-3 ECD protein, 0.0007 nM antibody
[29] = biological target: monkey TIM-3 extracellular domain protein with hFc tag (cTIM-3-hFc) (monkey); assay: ELISA, coated monkey TIM-3 ECD protein, 0.0001 nM antibody

TIM-3 protein on human peripheral blood mononuclear lymphocytes (PBMC) (human), sequence (Q8TDQ0 22-301 limits assumed): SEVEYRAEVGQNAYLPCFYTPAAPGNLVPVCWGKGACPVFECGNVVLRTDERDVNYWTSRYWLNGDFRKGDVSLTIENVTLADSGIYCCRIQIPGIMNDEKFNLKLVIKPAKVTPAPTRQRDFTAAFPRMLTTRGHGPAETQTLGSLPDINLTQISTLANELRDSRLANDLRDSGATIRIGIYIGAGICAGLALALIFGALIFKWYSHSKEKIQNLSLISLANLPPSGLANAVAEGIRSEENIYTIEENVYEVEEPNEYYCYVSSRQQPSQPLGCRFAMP
monkey TIM-3 extracellular domain protein with hFc tag (cTIM-3-hFc) (monkey), sequence (chain, as listed by the source): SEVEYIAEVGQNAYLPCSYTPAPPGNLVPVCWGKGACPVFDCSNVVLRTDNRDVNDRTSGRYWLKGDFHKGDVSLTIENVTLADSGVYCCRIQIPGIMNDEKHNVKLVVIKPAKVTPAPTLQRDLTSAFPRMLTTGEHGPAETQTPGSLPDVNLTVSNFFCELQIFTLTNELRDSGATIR
murine TIM-3 extracellular domain protein with hFc tag (mTIM-3-hFc) (mouse), sequence (Q8VIM0 other isoform, or with tags, fused parts or gaps): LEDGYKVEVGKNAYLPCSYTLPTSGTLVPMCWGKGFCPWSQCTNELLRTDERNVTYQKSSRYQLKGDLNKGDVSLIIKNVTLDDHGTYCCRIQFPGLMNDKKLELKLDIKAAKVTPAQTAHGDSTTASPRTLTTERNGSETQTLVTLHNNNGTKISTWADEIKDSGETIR
monkey TIM-3 on CHOK1 stable cell line (CHOK1-cTIM-3) (monkey), sequence (chain, as listed by the source limits assumed): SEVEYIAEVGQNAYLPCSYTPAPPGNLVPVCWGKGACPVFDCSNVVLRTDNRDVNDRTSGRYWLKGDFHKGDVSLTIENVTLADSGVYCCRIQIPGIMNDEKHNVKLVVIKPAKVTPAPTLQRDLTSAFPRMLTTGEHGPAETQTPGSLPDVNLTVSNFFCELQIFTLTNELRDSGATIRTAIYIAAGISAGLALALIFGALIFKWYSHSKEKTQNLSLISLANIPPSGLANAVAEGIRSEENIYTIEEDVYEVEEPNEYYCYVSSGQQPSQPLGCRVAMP
human TIM-3 extracellular domain protein with hFc tag (hTIM-3-hFc) (human), sequence (Q8TDQ0 22-200): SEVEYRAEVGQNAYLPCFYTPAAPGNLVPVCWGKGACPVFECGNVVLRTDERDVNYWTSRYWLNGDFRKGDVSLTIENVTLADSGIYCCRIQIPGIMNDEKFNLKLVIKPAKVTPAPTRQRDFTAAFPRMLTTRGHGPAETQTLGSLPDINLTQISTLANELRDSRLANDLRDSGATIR
human TIM-3 on CHOK1 stable cell line (CHOK1-hTIM-3) (human), sequence (Q8TDQ0 22-301 limits assumed): as the sequence (Q8TDQ0 22-301 limits assumed) above

Mean fluorescence intensity [1]: 2.9
Inhibition ratio (%) [2]: 9.6%
OD450 [3]: 0.15
OD450 [4]: 0.21
OD450 [5]: 0.08
Mean fluorescence intensity [6]: 2.9
Mean fluorescence intensity [7]: 2.9
Inhibition ratio (%) [8]: 2.8%
Mean fluorescence intensity [9]: 6
OD450 [10]: 0.43
OD450 [11]: 0.21
Inhibition ratio (%) [12]: -3.9%
Inhibition ratio (%) [13]: -2.5%
OD450 [14]: 0.13
OD450 [15]: 0.07
OD450 [16]: 0.73
OD450 [17]: 0.07
OD450 [18]: 0.22
OD450 [19]: 0.18
Mean fluorescence intensity [20]: 2.8
Inhibition ratio (%) [21]: 0.5%
OD450 [22]: 0.14
Mean fluorescence intensity [23]: 2.8
OD450 [24]: 0.07
OD450 [25]: 0.21
OD450 [26]: 0.07
IFN-γ production (donor X); antibody 0.1 µg/ml, N = 1 [27]: 2040 pg/mL
IFN-γ production (donor X); antibody 0.1 µg/ml, N = 2 [27]: 2060 pg/mL
IFN-γ production (donor X); antibody 1 µg/ml, N = 1 [27]: 2090 pg/mL
IFN-γ production (donor X); antibody 1 µg/ml, N = 2 [27]: 2070 pg/mL
IFN-γ production (donor X); antibody 10 µg/ml, N = 1 [27]: 2030 pg/mL
IFN-γ production (donor X); antibody 10 µg/ml, N = 2 [27]: 2020 pg/mL
IFN-γ production (donor X); antibody '0' (4th head as printed), N = 1 [27]: 2260 pg/mL
IFN-γ production (donor X); antibody '0' (4th head as printed), N = 2 [27]: 1900 pg/mL
IFN-γ production (donor X); antibody '0' (5th head as printed), N = 1 [27]: 2000 pg/mL
IFN-γ production (donor X); antibody '0' (5th head as printed), N = 2 [27]: 2320 pg/mL
OD450 [28]: 0.07
OD450 [29]: 0.13
Substance: human IgG control (antibody)
